# No end group written: not given here.
# How the values were obtained:
# [1] = system: human fibroblast (HDF); assay: Adhesion of human fibroblasts to polymerized peptide with RGD motif linked via linker; format: cell-based; details: 37° C., about an hour
# Procedure: CCC2-KGHRGF (SEQ ID NO. 18) was synthesized by a method similar to that of example 2. After forming triple helix with such CCC2-KGHRGF (SEQ ID NO: 18) at 1.11 mg/ml, DMSO was added to the concentration of 10%, and a mineral oil was then layered thereon, followed by oxidized and polymerized at room temperature for a week. Next, the polymerized peptide employing CCC2-KGHRGF (SEQ ID NO: 18) was diluted to 30 μg/ml, and a 96-well plate was then coated with such polymerized peptide overnight. Then, the solution was removed, followed by adding thereto 1 mg/ml BS (PEG)5 (by Pierce, catalog No. 21581) dissolved in a 5 mg/ml NaHCO3 aqueous solution, and then reacted at room temperature for about an hour to bind the linker. Next, there was added 10 mM ethanolamine (EA) or 100 μg/ml RGD pep (SEQ ID NO. 22) dissolved in a 5 mg/ml NaHCO3 aqueous solution, followed by allowing reaction to link CCC2-KGHRGF (SEQ ID NO: 18) to the linker at room temperature for about an hour.
# 5 mg/ml BSA was added to a gel linked with the above RGD motif, to perform blocking for about an hour. […] After air drying, microscopic observation was carried out, and there was evaluated a binding ability of HDF to the RGD motif linked to such polymerized peptide via a linker.
# [2] = CD spectrum measurement of triple-helical structure and its thermal stability; format: physicochemical; details: 225 nm; temperature gradient 18° C./h
# Procedure: The structure of the peptide was confirmed by CD spectrum (circular dichroism spectrometer J-820, JASCO Corporation). A peptide powder was dissolved in a degassed 0.05% TFA/H2O to prepare a solution of 1 mg/ml. After heating at 80° C. for 5 min, the solution was left to stand at 4° C. overnight to cause refolding as a measurement sample. CD spectrum was measured under the conditions of: temperature 4° C., 37° C., 80° C.; cell length 0.05 cm; sensitivity standard (100 mdeg); measurement wavelength 250 to 190 nm; data collection interval 0.2 nm; scanning speed 50 nm/min; response 0.5 sec; band width 1 nm; cumulated number 4. A signal obtained (θobs) was expressed as a residue average molar ellipticity (θmrw). θmrw was calculated by the following formula.
# A thermal stability of the triple-helical structure was observed by monitoring θmrw, 225 associated with a change in temperature. The measurement conditions were: 4 to 75° C. or 4 to 90° C.; cell length 0.05 cm; measurement wavelength 225 nm; data collection interval 0.5° C.; temperature gradient 18° C./h; sensitivity standard (100 mdeg); response 2 sec; band width 1 nm. It was determined that the triple-helical structure completely turned into a random coil structure in a region where the signal was linearly diminishing.
# [3] = Thermal stability of hydrogel (sinking of stainless ball); format: physicochemical; details: hydrogel of 1% (w/v) peptide; 10 min per temperature
# Procedure: After mounting the stainless ball on the hydrogel prepared, they were moved to a thermostatic device, and were left to stand for 10 min at various temperatures between 35° C. and 95° C. Whether gel collapse had occurred was determined by judging the sinking of the stainless ball.
# [4] = Hydrogel formation judged by holding of a stainless ball; format: physicochemical; parameters: key to gel formation, Time (hour) 9 / gel formation, Time (hour) 12 / gel formation, Time (hour) 15 / gel formation, Time (hour) 24 / gel formation, Time (hour) 32 / gel formation, Time (hour) 74 / gel formation, Peptide concentration 0.1% (w/v) / gel formation, Peptide concentration 0.2% (w/v) / gel formation, Peptide concentration 0.3% (w/v) / gel formation, Peptide concentration 0.5% (w/v) / gel formation, Peptide concentration 0.7% (w/v) / gel formation, Peptide concentration 1.0% (w/v): ◯: Gelated; X: Failed to gelate
# Procedure: Degassed water was used to prepare a peptide solution having a concentration of 1.11% (w/v) or 1.66% (w/v), and the solution was then put into a PCR tube. After heating this solution at 80° C. for 5 min using a polymerase chain reaction (PCR) machine (TaKaRa PCR Thermal Cycler, TAKARA BIO INC.), the solution was then left to stand at 4° C. overnight. By adding DMSO and water to this solution, there was prepared a peptide solution having a concentration of 10% DMSO, 0.1 to 1.5% (w/v). The PCR tube was then filled with a mineral oil in a way such that the mineral oil covered the liquid surface, followed by allowing the solution to stand at room temperature for a given period of time to achieve a gel. Then, gel formation was determined by looking at whether a stainless ball could be held by the gel.
# [5] = Hydrogel stability to reduction treatment (DTT) or water with pipetting; format: physicochemical; details: water added instead of reducing solution; pipetting about 90 times/min
# Procedure: There, verification was made on whether gel caused a collapse by breaking the disulfide cross-linking by a reduction treatment. A reducing solution of 100 μl (100 mM DTT, 50 mM phosphate buffer solution (pH 8.4)) or water was added to the hydrogel (30 μl) prepared. […] Then, pipetting procedure was respectively performed at a frequency of about 90 times/min and a volume of 100 μl/each time, using a yellow tip (up to 200 μl).
# [6] = Remaining thiol group (Ellman's reagent) in oxidative polymerization reaction; format: physicochemical; details: 10% DMSO, peptide 1% (w/v)
# Procedure: Degassed water was used to prepare a peptide solution having a concentration of 1.11% (w/v), and the solution was then put into a PCR tube. After heating this solution at 80° C. for 5 min, it was then left to sand still at 4° C. overnight. By adding DMSO to this solution, there was prepared a peptide solution having a final concentration of 10% DMSO, peptide 1% (w/v). The PCR tube was then filled with a mineral oil in a way such that the mineral oil covered the surface of the solution. In every measurement, the mineral oil was eliminated from the peptide solution to prepare a peptide solution for oxidation monitoring. Ellman's reagent was prepared in a way such that 9 mg/ml of DTNB was present in 50 mM of a phosphate buffer solution (pH 8.4). 33 mM phosphate buffer solution (pH 8.4) and Ellman's reagent 1.5 mg/ml were left to stand for […], then a light absorbance was then measured after a solution with a final concentration of peptide 0.167 mg/ml. Recorded were changes in absorbance with time, with a moment when DMSO was added being a starting point (0 hour). Since the Ellman's reagent generates 5-mercapto-2-nitrobenzoate (λ max=412 nm, ε=1.55×10^4) depending on the amount of thiol groups (referred to as “SH groups” hereunder) in the peptide, measured was a absorbance at 412 nm. After the measurement, optical path length was compensated by measuring absorbance at 997 nm and 900 nm.
# [7] = system: human dermal fibroblasts (HDF); assay: Cell adhesion assay with multifunctional polymerized gel; format: cell-based; details: gels with 1% by weight CCC2-GFOGER (short) triple-chain peptide unless ligand free; 37° C., three hours
# Procedure: CCC2-GPOGPR (short) (SEQ ID NO. 10), CC2-GPOGPR (short) (SEQ ID NO. 23) or C2-GPOGPR (short) (SEQ ID NO. 24) was respectively dissolved in a degassed ultrapure water, followed by heating it at 80° C. for 5 min, and then stranded at 4° C. overnight to form triple helix. These were mixed at various ratios, and DMSO was then added thereto in a way such that a final concentration became 10%, followed by adding them into a 96-well plate by 50 μL each. At that time, a triple-chain peptide containing CCC2-GFOGER (short) (SEQ ID NO. 11) of a weight ratio 1% was added to all the peptide mixture liquids, and those to which the triple-chain peptide was not added were recited as “Ligand-free.” This plate was then left to stand Mill in a container filled with 10% DMSO for four days or longer to turn the peptide solution into a gel. These gels were able to dilute DMSO by immersion in a cell culture medium overnight, and then used in the following experiments employing cells. Here, type I collagen was used as a positive control.
# The human dermal fibroblasts (HDF) were stripped with 0.05% trypsin/EDTA, followed by centrifuged at 800 rpm in a 15 mL tube to collect the cells. […]
substance,measurement,setting,value
"GRGDS-NH2 [soluble RGD, soluble peptide having the RGD motif, as a control]",adhesion of HDF,[1],binding ability of HDF was not exhibited
CC(POG)6PRG(POG)5CC (CCPPGPPGPPGPPGPPGPPGPRGPPGPPGPPGPPGPPGCC; not fully specified; hydroxyproline; MOD_RES (4)..(4) 4-Hydroxyproline; MOD_RES (7)..(7) 4-Hydroxyproline; MOD_RES (10)..(10) 4-Hydroxyproline; MOD_RES (13)..(13) 4-Hydroxyproline; MOD_RES (16)..(16) 4-Hydroxyproline; MOD_RES (19)..(19) 4-Hydroxyproline; MOD_RES (25)..(25) 4-Hydroxyproline; MOD_RES (28)..(28) 4-Hydroxyproline; MOD_RES (31)..(31) 4-Hydroxyproline; MOD_RES (34)..(34) 4-Hydroxyproline; MOD_RES (37)..(37) 4-Hydroxyprolin) [CC2],thermal denaturation (change in θ225 as temperature changed),[2],about 75 °C
same,temperature at which the stainless ball completely sank,[3],95 °C
same,gel-forming capability,"[4]; 1% (w/v) peptide, 10% DMSO, room temperature, up to three days",capable of turning into gels
same,"gel formation, Time (hour) 9","[4]; 1% (w/v) peptide, 9 hour",X
same,"gel formation, Time (hour) 12","[4]; 1% (w/v) peptide, 12 hour",X
same,"gel formation, Time (hour) 15","[4]; 1% (w/v) peptide, 15 hour",X
same,"gel formation, Time (hour) 24","[4]; 1% (w/v) peptide, 24 hour",X
same,"gel formation, Time (hour) 32","[4]; 1% (w/v) peptide, 32 hour",◯
same,"gel formation, Time (hour) 74","[4]; 1% (w/v) peptide, 74 hour",◯
same,"gel formation, Peptide concentration 0.3% (w/v)","[4]; oxidizing conditions: room temperature, three days, 0.3% (w/v)",X
same,"gel formation, Peptide concentration 0.5% (w/v)","[4]; oxidizing conditions: room temperature, three days, 0.5% (w/v)",X
same,"gel formation, Peptide concentration 0.7% (w/v)","[4]; oxidizing conditions: room temperature, three days, 0.7% (w/v)",X
same,"gel formation, Peptide concentration 1.0% (w/v)","[4]; oxidizing conditions: room temperature, three days, 1.0% (w/v)",◯
same,gel collapse on adding water,[5],gel collapse was observed
same,time in which peptide turned into a gel,[6],74 h
CCC(POG)4FOGERG(POG)4CCC [CCC2-GFOGER (short)],adhesion and aggregation of human dermal fibroblasts on gel,[7],each human dermal fibroblast elongated and adhered respectively

# — US10851152B2, “Polymerized peptide and gel having collagen-like structure” (WASEDA UNIVERSITY, priority 2015, dated 2020)
